Patent US20250298013A1

Tests used:
[1] = molecular target: Background (Staphylococcus aureus); experiment: SPRi, in-line blocking: IgG mix injected after thiolated PEG over a chip functionalised with thiolated protein A, (-) press load [Continued) C]
[2] = molecular target: Background (Staphylococcus aureus); experiment: SPRi, in-line blocking: IgG mix injected after thiolated PEG over a chip functionalised with thiolated protein A, (+) press load (300 Pa) [Continued) E]

IgG mix (antibody)
IgG change (Background curve) (%Reflectivity) [1]: 12 | IgG change (Background curve) (%Reflectivity) [2]: 2
